Among the data in a protein production outcome set (Wang et al. 2014) are protein production values, retold here.

The data set in a line: label from the status in PepcDB records.
As for “MNVIGKVTVLPQLPAEIARLSELAYNLYWSWTPRAQALYRDLSPELWERFQHNPVRLLLEADQDRLNAAAQDPAYLGRYAQVMADFDAYMGKKDTWAARHAPQMKPVAYFSMEYAFHESLPIYSGGLGVLAGDHCKSASDLGLPFTAVGMLFSQGYFRQLFDKDGWQNEAYDELDLTTLPIQPAQSAAGEDIRVSVRIAGREVAVKVWTLQVGRVRVLLLDSNVPDNSEDDRKLTARLYGGNQELRVQQYVLLGVAGIRALRALDVPASVYHMNEGHAALMALERMREYVAAGQDFRTAAELAASSTLFTTHTPVAAGNDAFTYELMDKYIGEWPGLLHAGRDELYALARHDQQWDGHTVPAFSMTVFALSMSRAANGVSELHGEVSRGMWNFLYPGAEENEVPIGHVTNGAHNLTFTSQRMRDLLSTVLPEDWTERLEDETMWQAVEQLTEEQLSNVQREMKREMITFVRGRVREQLLRNGASAADVAATDNLLDEGTLTIGFARRFATYKRATLLLRDKPRLAAIVNNPERPVQFVFAGKAHPADNPGKAFIQEIYRTSQEPEFRGKIVILENYDMNVARHLVQGVDIWLNNPRRPLEASGTSGMKASFNGSPNFSVLDGWWREGYDGTNGWPIGEEREYADLNVQDDADAFDLYQRLEHEIAPRYYGHAQGNASWAHTVRDAIETVSPRFSMQRQVLDYVQQYYLPLGQRGTQLADHGGARARDLAAWKAWVRQQWPHTSISAQANLPATARPGEQVTVSAQVNPAGIRPEELRVEAVLKRGDEVQRYPLAPGEGGQYSAEIPLDDSGLYSVGVRMLPLIDGLSNDLEAGLIKWA”, the protein production entry is “failed”.

Turning to “MKLINTTWTHQELVNNQLDNTDAFLVETYSAGNTDVVFTQAPKHYELLISNKHRAVKDNELEVIREFFLKRKIDKDIVLMDKLRTVHTDKLIEISFPTTV”, the protein production result is “not failed”. To “VISSDVIRGYVDTIILSLLIEGDSYGYEISKNIRIKTDELYVIKETTLYSAFARLEKNGYIKSYYGEETQGKRRTYYRITPEGIKYYKQKCEEWELTKKVINKFVKELESNGDN” belongs “not failed”; to “TELQAVTGRAEIAGERLKLLYDAGLGIGTTLDVLRTADELAQVAVPRFADFVTVDLADAVLHGEEPAPTATDLRRTAVCGIRDDHPLYELGQLIDFLPSTPQARGYGSGYSELVTDLSTATGWHAQDPERTKAIIDYGIHSLIAAPIQARGVVLGMANFWRSKQHEPFVEEEMSLAEELVARAAVSIDNARRYTREHALAVTLQRSLLPRALP”, “failed”. To “MNAIGIVGTGAMGRGIAQIAAQAGLRVRLFDASPQAVEAARAALADTLARLAAKGRLTADQADAALARLMPAAALAELADCDLVVEAIVENLEAKRDLFRQLEAIVGPETILASNTSSLSITAIAAACRRPERVAGFHFFNPVPLMKVVEVIAGLRSAPAACDALAALAGRMGHAAVRCTDMPGFIVNHAGRGMNTEGLRVVQEGVTAFADVDAVMREQAGFRMGPFELMDLTGLDVSHPVMESIYRQFYDEPRYRPSRITAVRLAGGLLGRKTGEGFYRYADGQKPVPPEAAAPAARPKSVWVSRAHAAGHTAAQRLLLDLCVTPEDGAWPSAEALIVVTPRGLDATAAAVAEGLDGRRTVALDTLYPFAATRRRTLMTTPATDPAHRDAAHGLFAADGVPVTVIRDSGGFVAQRIVACIVNIACDIAQQRIATPADIDLAVTLGLGYPQGPLALGDTLGAGAVLEVLQNLTTLYGDPRYRPSPWLLRRARLGLSLLTPDA” belongs “failed”; to “MKIDGETRSARKDREIIQAATAAFISKGYDGTSMEEIATKAGASKQTVYKHFTDKETLFGEVVLSTASQVNDIIESVTTLLSEAIFMEGGLQQLARRLIAVLMDEELLKLRRLIIANADRMPQLGRAWYEKGFERMLASTASCFQKLTNRGLIQTGDPYLAASHLFGMLLWIPMNEAMFTGSNRRSKAELERHADASVEAFLAVYGVQPK”, “not failed”. To “EKRKVLIPIDFSNYSLKACQFGFSFANAINSEVVLLHAYFSPIYVPTIPYGTDNFNFQIEREESVKSMIETVHNELNKLSDTIKKKVESGEFPNIKYTCILRDGIPEEEILRYAKEYNPQIIIMGTRGRSQKDIDLIGSVTAEVIERSKSFVYAIPEHTPLK” belongs “failed”.
